The record followed here is patent US20200055913A1 (University of California, published 2020).

Assay [1] addresses T1, human TLR4 on human PBMC (CD14+CD11b+ monocytes) (human, UniProt O00206 24-839).
T1 construct: whole, on cells
Nature of the assay: competitive hRetn/LPS binding assay on human PBMC, flow cytometry. The procedure:
With reference to FIG. 5J, the functional ability of the hRetn N-peptide to block LPS binding and function was tested. The binding experiments were performed on ice to rule out effects of LPS-induced TLR4 endocytosis, which would have added complexity for interpretation of the data. Pre-incubation of human PBMC with the hRetn N-peptide or full-length hRetn inhibited LPS binding to CD14+CD11 b+ monocytes. […] An additional formulation of human resistin fused to the humanFc Ig fragment was also effective at inhibiting proinflammatory cytokines and promoting IL-10 expression in primary macrophage cultures (FIG. 7C).
Human PBMCs. Human buffy coat was purchased from Zen-bio. Buffy coat was overlaid on top of Histopaque-1077 and spun at 700g at 25° C. with no brake and PBMCs were recovered from the interphase. PBMCs were plated in 96-well plates and stimulated with mammalian-derived human resistin (1 μg/mL, LifeSpan Biosciences) or hRetn N-peptide (1 μg/mL). After 24 hours, ultrapure LPS (100 ng/mL, Invivogen) was added and supernatants recovered for ELISA at 24 hours. Where indicated, cells were incubated for 4 hours with STAT3 (5, 15-DPP, 50 μM) or TBK1 (BX-795, 1 μM) inhibitors prior to hRetn treatment. For the hRetn competitive binding assay, 1×10^6 cells were incubated with recombinant hRetn (0.5 μg), washed in PBS then incubated with 0.5 μg LPS-biotin (incubations were 30 minutes on ice). […]
For orientation: A flow cytometer gives signals particle by particle.

In assay [2] the target is his-maltose binding protein (MBP) (UniProt P0AEX9 27-396 = MBP). Briefly: pull-down on nickel-NTA agarose beads, anti-hRetn Western blot. On the procedure: (§1) Given that there are no publicly available CAP1 deficient mice, a direct protein-protein interaction of hRetn to TLR4 or CAP1 was investigated as an alternative to cell binding assays. A pull-down assay was performed utilizing recombinant hRetn with histidine (his)-tagged human TLR4, his-human CAP1 or his-maltose binding protein (MBP) as a negative control (FIG. 4G). In the pull-down elution, Western blot using anti-his antibody confirmed that his-MBP, his-TLR4 and his-CAP1 are all pulled down by the nickel-NTA agarose beads. In addition, when blotting the elution fraction with anti-hRetn antibody, hRetn was only present in the elution with his-TLR4, not his-CAP1 or his-MBP. To ensure that this interaction was not due to low-level LPS contamination, this pull-down assay was also performed with mammalian cell-derived hRetn. Similar to E. coli-derived hRetn, mammalian-derived hRetn is only detected when pulled down with his-TLR4, not his-CAP1 or his-MBP.
(§2) Pull-down Assay. […] His-MBP, His-TLR4 and His-CAP1 were detected by anti-His antibody (Abcam), and hRetn was detected by anti-hRetn antibody (donated by Mitchell Lazar) by Western Blot. […]

Assay [3] deals with T2, his-human CAP1 (cyclic adenylate associated protein 1) (human, UniProt Q01518 1-475, limits assumed).
T2 construct: Proposed receptor of hRetn, tested in the pull-down; also called his-CAP1; His-CAP1; not shown: His tag
T2 sequence (Q01518 whole entry): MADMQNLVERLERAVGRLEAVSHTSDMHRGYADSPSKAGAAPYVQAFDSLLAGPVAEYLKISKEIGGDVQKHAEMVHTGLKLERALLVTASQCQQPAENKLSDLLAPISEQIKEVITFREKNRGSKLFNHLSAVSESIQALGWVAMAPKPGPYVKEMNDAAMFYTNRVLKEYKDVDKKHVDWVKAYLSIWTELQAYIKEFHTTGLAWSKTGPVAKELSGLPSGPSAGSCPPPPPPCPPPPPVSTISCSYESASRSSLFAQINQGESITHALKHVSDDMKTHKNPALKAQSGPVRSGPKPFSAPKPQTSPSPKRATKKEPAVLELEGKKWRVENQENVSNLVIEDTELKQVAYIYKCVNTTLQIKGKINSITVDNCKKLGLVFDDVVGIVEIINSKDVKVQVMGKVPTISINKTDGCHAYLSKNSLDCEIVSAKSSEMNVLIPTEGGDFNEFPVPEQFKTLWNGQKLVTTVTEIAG
The assay is described as above. On the procedure: as §1, §2

T1 sequence (O00206 24-839): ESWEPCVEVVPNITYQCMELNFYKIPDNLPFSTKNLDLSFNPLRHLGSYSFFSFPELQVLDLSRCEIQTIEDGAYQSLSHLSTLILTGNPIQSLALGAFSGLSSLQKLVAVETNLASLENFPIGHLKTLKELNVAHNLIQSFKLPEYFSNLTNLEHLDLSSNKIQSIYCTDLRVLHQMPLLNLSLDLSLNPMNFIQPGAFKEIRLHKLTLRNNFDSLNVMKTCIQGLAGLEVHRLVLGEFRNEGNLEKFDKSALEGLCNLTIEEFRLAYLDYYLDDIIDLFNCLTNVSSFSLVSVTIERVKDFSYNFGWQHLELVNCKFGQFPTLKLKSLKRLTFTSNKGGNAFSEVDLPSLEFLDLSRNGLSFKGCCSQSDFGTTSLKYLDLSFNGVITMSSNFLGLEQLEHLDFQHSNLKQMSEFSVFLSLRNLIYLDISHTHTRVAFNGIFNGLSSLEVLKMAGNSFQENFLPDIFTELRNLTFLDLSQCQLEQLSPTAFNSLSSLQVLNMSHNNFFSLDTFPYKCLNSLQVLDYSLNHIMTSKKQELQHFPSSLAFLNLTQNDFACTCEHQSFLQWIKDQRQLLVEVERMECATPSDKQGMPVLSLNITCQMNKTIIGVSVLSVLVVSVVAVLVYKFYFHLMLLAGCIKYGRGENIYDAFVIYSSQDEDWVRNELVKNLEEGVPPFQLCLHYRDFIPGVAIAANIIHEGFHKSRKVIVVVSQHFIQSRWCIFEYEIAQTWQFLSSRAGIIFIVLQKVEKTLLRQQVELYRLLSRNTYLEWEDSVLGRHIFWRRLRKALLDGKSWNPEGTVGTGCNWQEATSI

B1: mammalian cell-derived human resistin (hRetn), 293T cell-derived (LifeSpan Biosciences) (ligand)
chain: KTLCSMEEAINERIQEVAGSLIFRAISSIGLECQSVTSRGDLATCPRGFAVTGCTCGSACGSWDVRAETTCHCQCAGMDWTGARCCRVQP
notes: Bought protein (LifeSpan Biosciences); also called mammalian-derived hRetn; 293T derived hRetn
Take B1: in assay [1], the binding result was “binds”.

B2: recombinant human resistin (hRetn), E. coli-derived (Peprotech) (ligand)
chain: SSKTLCSMEEAINERIQEVAGSLIFRAISSIGLECQSVTSRGDLATCPRGFAVTGCTCGSACGSWDVRAETTCHCQCAGMDWTGARCCRVQP
notes: Bought protein (Peprotech), made in bacteria; also called recombinant hResistin; E. coli-derived hRetn
With B2, the binding result in assay [2] and in assay [3] was “no binding” in each case.
